Tested on: Escherichia coli TOP10
Test: shrunken log2 fold change of peptide-encoding DNA abundance (4.5 h post-induction vs induction); higher = less antimicrobial activity (less host growth inhibition)
Settings: time post-induction: 4.5 h; library: site-saturation at positions 5, 18, 19, 20
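Also: peptides expressed intracellularly from a pBAD plasmid library in pooled LB shake-flask culture, induced with 0.3% L-arabinose, DNA abundance read by NGS, three biological replicates, DESeq2 with apeglm shrinkage.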

Row | Sequence | shrunken log2 fold change
1 | RRIRERPPRLPRPRPRPWQPPRP | 0.0778
2 | RRIRERPPRLPRPRPRPWSNPRP | -0.0583
3 | RRIRERPPRLPRPRPRPWVSPRP | -0.0377
4 | RRIRERPPRLPRPRPRPWVTPRP | -0.0915
5 | RRIRERPPRLPRPRPRPYCDPRP | -0.0156
6 | RRIRERPPRLPRPRPRPYDFPRP | -0.0231
7 | RRIRERPPRLPRPRPRPYDRPRP | 0.0251
8 | RRIRERPPRLPRPRPRPYFFPRP | -0.587
9 | RRIRERPPRLPRPRPRPYFKPRP | -0.258
10 | RRIRERPPRLPRPRPRPYFPPRP | -0.307
11 | RRIRERPPRLPRPRPRPYFWPRP | -0.143
12 | RRIRERPPRLPRPRPRPYGDPRP | -0.218
13 | RRIRERPPRLPRPRPRPYICPRP | -0.486
14 | RRIRERPPRLPRPRPRPYIIPRP | -0.837
15 | RRIRERPPRLPRPRPRPYKGPRP | -0.0341
16 | RRIRERPPRLPRPRPRPYKKPRP | 0.0359
17 | RRIRERPPRLPRPRPRPYKVPRP | -0.0366
18 | RRIRERPPRLPRPRPRPYLFPRP | -0.137
19 | RRIRERPPRLPRPRPRPYMWPRP | -0.452
20 | RRIRERPPRLPRPRPRPYNHPRP | -0.272
21 | RRIRERPPRLPRPRPRPYPQPRP | -0.898
22 | RRIRERPPRLPRPRPRPYQGPRP | -0.199
23 | RRIRERPPRLPRPRPRPYQMPRP | -0.448
24 | RRIRERPPRLPRPRPRPYRCPRP | -0.0874
25 | RRIRERPPRLPRPRPRPYRMPRP | -0.113

Row | Sequence | shrunken log2 fold change
26 | RRIRERPPRLPRPRPRPYSFPRP | -0.0431
27 | RRIRERPPRLPRPRPRPYTEPRP | 0.0251
28 | RRIRERPPRLPRPRPRPYTMPRP | -0.0431
29 | RRIRERPPRLPRPRPRPYVPPRP | -0.0961
30 | RRIRERPPRLPRPRPRPYWGPRP | -0.346
31 | RRIRFRPPRLPRPRPRPAAWPRP | 0.28
32 | RRIRFRPPRLPRPRPRPACHPRP | -0.0466
33 | RRIRFRPPRLPRPRPRPADCPRP | -0.282
34 | RRIRFRPPRLPRPRPRPAEEPRP | 0.105
35 | RRIRFRPPRLPRPRPRPAEIPRP | -0.228
36 | RRIRFRPPRLPRPRPRPAFEPRP | 0.226
37 | RRIRFRPPRLPRPRPRPAFVPRP | -0.028
38 | RRIRFRPPRLPRPRPRPAGEPRP | 0.191
39 | RRIRFRPPRLPRPRPRPAGGPRP | 0.382
40 | RRIRFRPPRLPRPRPRPAGTPRP | -0.0142
41 | RRIRFRPPRLPRPRPRPAHDPRP | 0.0907
42 | RRIRFRPPRLPRPRPRPAILPRP | 0.0816
43 | RRIRFRPPRLPRPRPRPALAPRP | 0.257
44 | RRIRFRPPRLPRPRPRPAMRPRP | 0.307
45 | RRIRFRPPRLPRPRPRPAMVPRP | -0.149
46 | RRIRFRPPRLPRPRPRPAMWPRP | 0.0848
47 | RRIRFRPPRLPRPRPRPANIPRP | -0.0774
48 | RRIRFRPPRLPRPRPRPANQPRP | -0.165
49 | RRIRFRPPRLPRPRPRPANWPRP | 0.166
50 | RRIRFRPPRLPRPRPRPAPMPRP | 0.282

Row | Sequence | shrunken log2 fold change
51 | RRIRFRPPRLPRPRPRPAPWPRP | 0.592
52 | RRIRFRPPRLPRPRPRPAQGPRP | -0.00447
53 | RRIRFRPPRLPRPRPRPARAPRP | 1.31
54 | RRIRFRPPRLPRPRPRPARMPRP | 0.296
55 | RRIRFRPPRLPRPRPRPASKPRP | 0.0916
56 | RRIRFRPPRLPRPRPRPASLPRP | -0.227
57 | RRIRFRPPRLPRPRPRPATTPRP | -0.0275
58 | RRIRFRPPRLPRPRPRPAVFPRP | 0.259
59 | RRIRFRPPRLPRPRPRPAVRPRP | -0.0627
60 | RRIRFRPPRLPRPRPRPAWRPRP | 0.765
61 | RRIRFRPPRLPRPRPRPAYFPRP | -0.108
62 | RRIRFRPPRLPRPRPRPAYSPRP | 0.00204
63 | RRIRFRPPRLPRPRPRPCASPRP | -0.315
64 | RRIRFRPPRLPRPRPRPCCQPRP | -0.439
65 | RRIRFRPPRLPRPRPRPCCYPRP | -0.251
66 | RRIRFRPPRLPRPRPRPCDNPRP | -0.0843
67 | RRIRFRPPRLPRPRPRPCDVPRP | 0.0119
68 | RRIRFRPPRLPRPRPRPCEFPRP | 0.0635
69 | RRIRFRPPRLPRPRPRPCFGPRP | -0.0611
70 | RRIRFRPPRLPRPRPRPCFVPRP | -0.578
71 | RRIRFRPPRLPRPRPRPCINPRP | -0.0523
72 | RRIRFRPPRLPRPRPRPCLHPRP | -0.542
73 | RRIRFRPPRLPRPRPRPCLIPRP | -0.448
74 | RRIRFRPPRLPRPRPRPCMAPRP | -0.594
75 | RRIRFRPPRLPRPRPRPCMQPRP | -0.163

Row | Sequence | shrunken log2 fold change
76 | RRIRFRPPRLPRPRPRPCQHPRP | -0.397
77 | RRIRFRPPRLPRPRPRPCQPPRP | -0.134
78 | RRIRFRPPRLPRPRPRPCRMPRP | -0.168
79 | RRIRFRPPRLPRPRPRPCRYPRP | -0.0124
80 | RRIRFRPPRLPRPRPRPCSCPRP | -0.879
81 | RRIRFRPPRLPRPRPRPCVHPRP | 0.00355
82 | RRIRFRPPRLPRPRPRPCWNPRP | 0.151
83 | RRIRFRPPRLPRPRPRPCYQPRP | -0.229
84 | RRIRFRPPRLPRPRPRPCYVPRP | -0.0693
85 | RRIRFRPPRLPRPRPRPDCKPRP | 0.154
86 | RRIRFRPPRLPRPRPRPDCRPRP | -0.309
87 | RRIRFRPPRLPRPRPRPDDVPRP | -0.0133
88 | RRIRFRPPRLPRPRPRPDEQPRP | 0.00595
89 | RRIRFRPPRLPRPRPRPDETPRP | 0.145
90 | RRIRFRPPRLPRPRPRPDGAPRP | -0.0432
91 | RRIRFRPPRLPRPRPRPDGIPRP | -0.255
92 | RRIRFRPPRLPRPRPRPDHQPRP | -0.147
93 | RRIRFRPPRLPRPRPRPDIGPRP | -0.0309
94 | RRIRFRPPRLPRPRPRPDKRPRP | -0.0786
95 | RRIRFRPPRLPRPRPRPDLTPRP | -0.181
96 | RRIRFRPPRLPRPRPRPDLYPRP | -0.053
97 | RRIRFRPPRLPRPRPRPDMMPRP | -0.0389
98 | RRIRFRPPRLPRPRPRPDMQPRP | -0.313
99 | RRIRFRPPRLPRPRPRPDNPPRP | -0.0747
100 | RRIRFRPPRLPRPRPRPDPCPRP | -0.191

Row | Sequence | shrunken log2 fold change
101 | RRIRFRPPRLPRPRPRPDPIPRP | 0.159
102 | RRIRFRPPRLPRPRPRPDPSPRP | -0.323
103 | RRIRFRPPRLPRPRPRPDQKPRP | -0.0128
104 | RRIRFRPPRLPRPRPRPDQRPRP | -0.325
105 | RRIRFRPPRLPRPRPRPDSEPRP | 0.104
106 | RRIRFRPPRLPRPRPRPDSFPRP | -0.00668
107 | RRIRFRPPRLPRPRPRPDSTPRP | -0.596
108 | RRIRFRPPRLPRPRPRPDTCPRP | -0.21
109 | RRIRFRPPRLPRPRPRPDTFPRP | -0.144
110 | RRIRFRPPRLPRPRPRPDTIPRP | -0.498
111 | RRIRFRPPRLPRPRPRPDTRPRP | -0.324
112 | RRIRFRPPRLPRPRPRPDWDPRP | 0.124
113 | RRIRFRPPRLPRPRPRPDWFPRP | -0.32
114 | RRIRFRPPRLPRPRPRPDWKPRP | 0.0379
115 | RRIRFRPPRLPRPRPRPDWRPRP | 0.0737
116 | RRIRFRPPRLPRPRPRPECYPRP | -0.155
117 | RRIRFRPPRLPRPRPRPEDDPRP | -0.18
118 | RRIRFRPPRLPRPRPRPEELPRP | 0.0201
119 | RRIRFRPPRLPRPRPRPEFEPRP | 0.122
120 | RRIRFRPPRLPRPRPRPEFQPRP | 0.0542
121 | RRIRFRPPRLPRPRPRPEGMPRP | -0.0976
122 | RRIRFRPPRLPRPRPRPEIVPRP | -0.0888
123 | RRIRFRPPRLPRPRPRPEKKPRP | 0.0265
124 | RRIRFRPPRLPRPRPRPELCPRP | 0.193
125 | RRIRFRPPRLPRPRPRPELFPRP | 0.15

Row | Sequence | shrunken log2 fold change
126 | RRIRFRPPRLPRPRPRPELIPRP | -0.308
127 | RRIRFRPPRLPRPRPRPEMFPRP | 0.099
128 | RRIRFRPPRLPRPRPRPEMPPRP | -0.142
129 | RRIRFRPPRLPRPRPRPEMQPRP | 0.0943
130 | RRIRFRPPRLPRPRPRPENIPRP | 0.0737
131 | RRIRFRPPRLPRPRPRPENPPRP | -0.0301
132 | RRIRFRPPRLPRPRPRPESNPRP | 0.224
133 | RRIRFRPPRLPRPRPRPETDPRP | 0.114
134 | RRIRFRPPRLPRPRPRPETHPRP | -0.0779
135 | RRIRFRPPRLPRPRPRPEVVPRP | 0.723
136 | RRIRFRPPRLPRPRPRPEWAPRP | 0.398
137 | RRIRFRPPRLPRPRPRPEWQPRP | -0.00149
138 | RRIRFRPPRLPRPRPRPEWSPRP | 0.219
139 | RRIRFRPPRLPRPRPRPEYCPRP | 0.0467
140 | RRIRFRPPRLPRPRPRPEYDPRP | 0.0271
141 | RRIRFRPPRLPRPRPRPFACPRP | -0.189
142 | RRIRFRPPRLPRPRPRPFADPRP | -0.0172
143 | RRIRFRPPRLPRPRPRPFAFPRP | -0.239
144 | RRIRFRPPRLPRPRPRPFCGPRP | -0.0609
145 | RRIRFRPPRLPRPRPRPFDHPRP | -0.281
146 | RRIRFRPPRLPRPRPRPFGAPRP | 0.168
147 | RRIRFRPPRLPRPRPRPFGWPRP | 0.0193
148 | RRIRFRPPRLPRPRPRPFHHPRP | -0.976
149 | RRIRFRPPRLPRPRPRPFISPRP | -0.691
150 | RRIRFRPPRLPRPRPRPFKFPRP | -0.107

Source: the supplement of paper PMC9112550, “Optimization of the antimicrobial peptide Bac7 by deep mutational scanning” (BMC Biology, 2022)
